{
  "source": "paper PMC3064264",
  "about": "(The Journal of neuroscience : the official journal of the …, 2010)",
  "molecular_target": "the molecule itself",
  "assay": "non-reducing SDS-PAGE and Western blot",
  "data": [
    {"protein": "kinesin-12 (rat) (natural protein, UniProt Q7TSP2 1-1385, looked up) MAPGCKSELRNVTNSHSNQPSNEDDAIKVFVRIRPAEEGARSADGEQSLCLSVLSQTALRLHSNPDPKTFVFDYVAGMDTTQESVFSTVAKSIVESCMSGYNGTIFAYGQTGSGKTFTMMGPSDSDNFSHNLRGVIPRSFEYLFSLIDREKEKAGAGKSFLCKCSFIEVYNEQIYDLLDSASVGLYLREHIKKGVFVVGAVEQVVASAAEAYQVLSRGWRNRRVASTSMNRESSRSHAVFTITIESMEKSSEAVNIRTSLLNLVDLAGSERQKDTHAEGMRLKEAGNINRSLSCLGQVITALVDVGNGKQRHVCYRDSKLTFLLRDSLGGNAKTAIIANVHPGSRCFGETLSTLNFAQRAKLIKNKAVVNEDTQGNVSQLQAEVKRLREQLSQFTSGQLTPGSSLARDKEKANYMEYFLEAMLFFKKSEQEKKSLVEKITQLEDLTLKKEKFIQSNKMIVKFREDQIMRLERLQKEARGSFLPEEQDRLLSELRDEIRTLREQVEHHPRLAKYAMENHSLREENRKLKLLAPVKRAHELDAQAIARLEQAFSEVSSTETNDKGLQGLPPKAIKEPSFFTSTEKLKVQLLQIQTELNNSKQEYEEFKELTRKKQLELESELQSLQKANLNLENLLEATKVCKRQEVSQLNKIHAETLKIITTPTKAYQLCSRLVPKSSPEVGSFGFLRSQSAPDNDILNEPVPPEMSEQALEAISEELRTVQEQLSVLQVKLDEEEHKNLKLQQNVDRLEHHSTQMQELFSSERSDWSKQQQDYLTQLSDLEKQLQDAQTKNDFLKCEVHDLRIVLNSADKELSLVKLEYSTFKESQEKELSQLSERHVQVQLQLDNARLENEKLLESQACLQDSYDNLQEVMKFEVDQLSKNLQNCKQENETLKSDLHNLVELFEAEKERNNKLSLQFEEDKENSSKEILKALETVRQEKQEEMARCEKQMAKVQELEESLLAAENVVSCLEKSRESDKELVTNLMNQIQELRTSAGEKSEAIDTLKQELQDISCKYTAAVADKEESKELIRRQEVDILELKETLRLRILSEDIERDMLCEDLAHATEQLNMLTEASKKHSGLLQSAQEELTKKEALIQELQHKLNQEKEEVEQKKSEYNLKMKQLEHVMGSAPEYPQSPKTPPHFQTHLAKLLETQEQEIEDGRASKMSLQHLVTKLNEDREVKNAEILRMKDQLCEMENLRLESQQLRERTWLLQTQLDDMKRQGESSSQSRPDSQQLKNEYEEEIIRERLAKNKLIEEMLKMKTDLEEVQSALDSKEKFCHRMSEEVERTRTLESRAFQEKEQLRSKLEEMYEERERTCQEMEMLRKQLEFLAEENGKLIGHQNLHQKIQYVVRLKKENIRLAEETEKLRAENVFLKERKKE", "values": [
      {"measurement": "stoichiometry N", "result": 2}
    ]}
  ]
}
